According to PMC7717906 (eLife, 2020):

Biological target: the molecule itself
Assay: native gel or EMSA

B1: MoOsm1-GFP (enzyme)
chain: MAEFVRAQIFGTTFEITSRYSDLQPVGMGAFGLVCSARDQLTNQNVAIKKIMKPFSTPVLAKRTYRELKLLKHLKHENVISLSDIFISPLEDIYFVTELLGTDLHRLLTSRPLEKQFIQYFLYQIMRGLKYVHSAGVVHRDLKPSNILVNENCDLKICDFGLARIQDPQMTGYVSTRYYRAPEIMLTWQKYDVEVDIWSAGCIFAEMLEGKPLFPGKDHVNQFSIITELLGTPPDDVINTIASENTLRFVKSLPKRERQPLKNKFKNADPSAIDLLERMLVFDPKKRITATEALAHEYLTPYHDPTDEPIAEEKFDWSFNDADLPVDTWKIMMYSEILDYHNAEAGMQQMDDQFTGQ
stoichiometry N: 2
